From US20170267727A1, “Conjugates of pH Low Insertion Peptide and Monomethyl Auristatins in the Treatment of Solid Tumors” (Lehigh University, priority 2016, published 2017)
Read-outs that look alike come from different tables or passages of the source. Positions of bridges follow the written chain, without caps; N, C: chain ends. Non-standard residues stand in square brackets, D forms with d. Chains are numbered I, II in the order given. *: point of attachment. Dolaproine = CO[C@@H]([C@@H]1CCCN1)[C@@H](C)C(=O)O; Dil = CC[C@H](C)[C@H](NC)[C@@H](CC(=O)O)OC; X1 = C[C@@H](N*)[C@@H](O)c1ccccc1; NMeV = CN[C@H](C(=O)O)C(C)C; Mpa = O=C(O)CCS

Assays:
[1] = for Trp fluorescence emission maxima: POPC liposomes; for insertion in lipid bilayers: acidic conditions
Experimental: State I corresponds to the peptides in an aqueous environment is shown in black, state II: peptides in the presence of lipid membranes at pH 7.4, shown in blue and state III: peptides in the presence of lipids at pH 5.0 is shown in red. [peptide]=7 μM and peptide-lipid ratio=1:300 with POPC liposomes.
Preparation of POPC Liposomes. Ten milligrams of POPC in chloroform were dried and then held under vacuum overnight. The dried lipid film was rehydrated with 1 ml of 5 mM sodium phosphate, pH 8.0, and mixed by vigorous vortex. The resulting multilamellar vesicle solution was freeze-thawed in liquid nitrogen for seven cycles and were extruded through a polycarbonate membrane with […] diameter pores using a mini extruder (Avanti Polar Lipids) to produce large unilamellar vesicles. Liposomes were used immediately following their preparation. Lipid concentration was checked using the Marshall's assay and the size distribution was verified by dynamic light scattering analysis performed at a scattering angle of 90° using an ALV/GSC-3 goniometer system equipped with ALV/ALV-7004 correlator (ALV-GmbH, Langen, Germany).
Sample preparation for Circular Dichroism and Tryptophan Fluorescence Measurements. Prior to CD or fluorescence measurements, lyophilized aliquots of pHLIP constructs were resuspended to 20 μM with 5 mM sodium phosphate, pH 8.0, and incubated for 1 hour at room temperature. This stock solution was diluted to a final concentration of 7 μM and, when appropriate, incubated with POPC liposomes at a 1:300 peptide-to-lipid molar ratio for 30 minutes at room temperature. Subsequently, samples were adjusted to the desired experimental pH values with the addition of aliquots of an HCl solution to elicit pH-dependent insertion. Samples were allowed to equilibrate at the desired pH for 30 minutes at room temperature before spectroscopic measurements.
Tryptophan Fluorescence Spectroscopy. All measurements were carried out using a Cary Eclipse Fluorescence Spectrophotometer (Varian), and performed at 25° C. with pHLIP construct concentrations equal to 7 μM. Samples were excited at 295 nm and the emission spectra were taken from 300 to 500 nm, with the slit widths for emission and excitation both set 5 nm.
Circular Dichroism Spectroscopy. Far-UV CD spectra of pHLIP constructs were recorded on Jasco J-815 CD spectrometer equipped with a Peltier thermal-controlled cuvette holder (Jasco, Inc.). All measurements were performed in 0.1 mm quartz cuvette at 25° C. with pHLIP constructs concentrations equal to 7 μM. CD intensities are expressed in mean residue molar ellipticity [θ] calculated from the following equation: […]

HeLa cells = test: Anti-proliferation Assay (2 hours treatment at pH 7.4 or 5.0, 72 hours growth, MTT)
Experimental: FIG. 3A, FIG. 3C and FIG. 3E show HeLa cells treated with pHLIP(WT)-MMAE, pHLIP(D25E)-MMAE, and MMAE(linker), respectively. FIG. 3B, FIG. 3D and FIG. 3F show MDA-MB-231 cells treated with pHLIP(WT)-MMAE, pHLIP(D25E)-MMAE, and MMAE(linker), respectively. Black columns represent cells treated at pH 7.4 and cells treated at low pH are shown in grey. For each condition, 3,000 cells/well (96-well plate) were seeded, allowed to adhere overnight, treated for 2 hours, washed once with media and grown for 72 hour in complete medium at physiologic pH. Cell viability was assessed with the MTT assay. All measurements were normalized to the media control (0 μM, pH 7.4), as 100% cell viability. Results are shown as mean±SD (n=6-9).
HeLa cells treated with pHLIP(WT)-MMAF (FIG. 9A), pHLIP(D25E)-MMAF (FIG. 9B), pHLIP(P20G)-MMAF (FIG. 9C), and pHLIP(R11Q)-MMAF (FIG. 9D). Circles represent cells treated at pH 7.4 and squares represent cells treated at pH 5.0. Results are shown as the mean±SEM (n=6-9).
Anti-proliferation Assay. HeLa and MDA-MB-231 cells were seeded in 96-well plates at a density of 3,000 cells/well and incubated overnight. Before treatment, construct aliquots were solubilized in an appropriate volume of DMEM without FBS (pH 7.4)—so that upon pH adjustment the desired treatment concentration is obtained—and gently sonicated for 30-60 seconds using a bath sonicator (Branson Ultrasonics). After removal of cell media, this treatment solution was added to each well and incubated at 37° C. for 5-10 minutes. The pH was then adjusted to the desired value using a pre-established volume of DMEM, pH 2.0 buffered with citric acid (final volume=50 μL) and the plate was incubated at 37° C. for 2 hours. After treatment, the media was removed, cells were washed once with 100 μL of complete DMEM, and 100 μL of complete medium was added to each well before returning the plate to the incubator. Treatment solutions were collected and their pH values measured using a micro-combination pH probe (Microelectrodes, Inc.). […] Cell viability was determined after 72 hours using the colorimetric MTT assay. Briefly, 10 μL of a 5 mg/mL MTT stock solution was added to the treated cells and incubated for 2 hours at 37° C. The resulting formazan crystals were solubilized in 200 μL DMSO and the absorbance measured at 580 nm using an Infinite 200 PRO microplate reader (Tecan). Cell viability was calculated against control cells treated with media at physiologic pH.
Inhibition of Cell Proliferation. The ability of pHLIP to move MMAE across the cell membrane and to inhibit cancer cell proliferation in concentration and pH-dependent manners was evaluated. Cell treatments for both pHLIP(WT)-MMAE and pHLIP(D25E)-MMAE constructs were carried out with conjugate concentrations ranging from 1.25 to 10 μM at either pH 7.4 or 5.0. After a 2-hour incubation at 37° C., the treatment media was replaced by fresh media, and cells were grown for an additional 72 hours at normal pH before assessing cell viability using the MTT assay. […] This treatment protocol is quite stringent when compared to the typical multi-days exposure treatments used with free drugs (FIG. 6A and FIG. 6B).

I: H-AAEQNPIYWARYADWLFTTPLLLLELALLVDADEGTCG-NH2 / II: [Mpa][NMeV]V[Dil][Dolaproine]-X1 (disulfide I:37-II:1) [pHLIP(D25E)-MMAE]
Trp fluorescence emission maxima ([1]; pH 5.0): 329 nm
Trp fluorescence emission maxima ([1]; pH 7.4): 347 nm
insertion in lipid bilayers [1]: can insert in lipid bilayers under acidic conditions to form stable transmembrane α-helices

I: H-AAEQNPIYWARYADWLFTTPLLLLDLALLVDADEGTCG-OH / II: [Mpa][NMeV]V[Dil][Dolaproine]-X1 (disulfide I:37-II:1) [pHLIP(WT)-MMAE]
effect on cell proliferation (HeLa cells; pH 7.4, same conditions (1.25 to 10 μM)): no or a moderate effect on cell proliferation
cytotoxicity (HeLa cells; physiological pH, 5 μM): only marginal cytotoxicity
Trp fluorescence emission maxima ([1]; pH 5.0): 334 nm
Trp fluorescence emission maxima ([1]; pH 7.4): 348 nm
insertion in lipid bilayers [1]: can insert in lipid bilayers under acidic conditions to form stable transmembrane α-helices
